In patent publication US20060153853A1 (UNIVERSITY OF ADELAIDE, published 2006):
Residue numbers refer to the chain shown, from its start. Names and notes keep the numbering of the source.

Tests used:
[1] = target: T1, IGF-I (insulin-like growth factor I) (UniProt P05019 49-118); assay: SPR (BIAcore), IGF-I amine-coupled to CM5 chip; ratio against hIGFBP-2
T1 construct: Amine-coupled (70 RU) to a CM-5 biosensor chip; also added to HT-29 cells; also called IGF-1
Method: (§1) The IGF surface was regenerated with 10 mM HCl.
(§2) The dissociation constant (KD) was determined from the calculation of kd/kₐ, where kₐ is the association rate and kd is the dissociation rate.

[2] = target: T2, IGF-II (insulin-like growth factor II) (UniProt P01344 25-91); assay: SPR (BIAcore), IGF-II amine-coupled to CM5 chip; ratio against hIGFBP-2
T2 construct: Amine-coupled (70 RU) to a CM-5 biosensor chip
Method: as §1
(§3) Table 3. […] Data was analysed using BIAevaluation software 3.0 and fit to a Langmuir 1:1 binding model. The dissociation constant (KD) was determined from the calculation of kd/kₐ, where kₐ is the association rate and kd is the dissociation rate.

[3] = target: T1, IGF-I (insulin-like growth factor I); assay: SPR (BIAcore) on immobilised IGF-I; text summing up Table 2
Method: as §1, §2

[4] = target: T2, IGF-II (insulin-like growth factor II); assay: SPR (BIAcore) on immobilised IGF-II; text summing up Table 3
Method: as §1, §3

T2 sequence (P01344 25-91 limits assumed): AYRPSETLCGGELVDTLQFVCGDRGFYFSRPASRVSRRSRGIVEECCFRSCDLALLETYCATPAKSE
T1 sequence (P05019 49-118 limits assumed): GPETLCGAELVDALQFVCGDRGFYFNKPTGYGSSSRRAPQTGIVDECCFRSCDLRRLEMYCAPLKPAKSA

B1: K227AHis hIGFBP-2 (other, human)
chain: EVLFRCPPCTPERLAACGPPPVAPPAAVAAVAGGARMPCAELVREPGCGCCSVCARLEGEACGVYTPRCGQGLRCYPHPGSELPLQALVMGEGTCEKRRDAEYGASPEQVADNGDDHSEGGLVENHVDSTMNMLGGGGSAGRKPLKSGMKELAVFREKVTEQHRQMGKGGKHHLGLEEPKKLRPPPARTPCQQELDQVLERISTMRLPDERGPLEHLYSLHIPNCDAHGLYNLKQCKMSLNGQRGECWCVNPNTGKLIQGAPTIRGDPECHLFYNEQQEARGVHTQRMQHHHHHH
notes: mature
[1]
  Rel. KD (KD of hIGFBP-2/KD of hIGFBP-2 mutant): 1.34
[2]
  Rel. KD (KD of hIGFBP-2/KD of hIGFBP-2 mutant): 1.27

B2: K234AHis hIGFBP-2 (other, human)
chain: B1 chain with A227K, K234A
notes: mature; also called K234A hIGFBP-2; K234AHis IGFBP-2
[1]
  Rel. KD (KD of hIGFBP-2/KD of hIGFBP-2 mutant): 0.64
[2]
  Rel. KD (KD of hIGFBP-2/KD of hIGFBP-2 mutant): 0.37

B3: K180A K181AHis hIGFBP-2 (other, human)
chain: B1 chain with K180A, K181A, A227K
notes: mature; also called K180A, K181A mutation
[1]
  Rel. KD (KD of hIGFBP-2/KD of hIGFBP-2 mutant): 0.87
[2]
  Rel. KD (KD of hIGFBP-2/KD of hIGFBP-2 mutant): 0.68

B4: K237AHis hIGFBP-2 (other, human)
chain: B1 chain with A227K, K237A
notes: mature
[3]
  fold higher affinity than native hIGFBP-2: ~2 fold
[1]
  Rel. KD (KD of hIGFBP-2/KD of hIGFBP-2 mutant): 2.29
[2]
  Rel. KD (KD of hIGFBP-2/KD of hIGFBP-2 mutant): 2.9
[4]
  fold higher affinity than native hIGFBP-2: ~2 fold
